Drawing on patent US20260097105A1, “SYSTEMS, FORMULATIONS AND METHODS FOR GENERATING UNIVERSAL PEPTIDE/MHC COMPLEXES WITH ENGINEERED DISULFIDE CONNECTING THE HEAVY AND LIGHT CHAINS” (priority 2022, published 2026), this text covers IC50 and fold of peptide exchange kinetics (Kassoc.) against WT HLA-A*24:02 for two molecules.

The target of test [1] is WT HLA-A*29:02/β2m/[…] (human). Put plainly: competition. The note with it: chains peptide; modification not given.
Test [2] has as its target open HLA-A*24:02 (G120C)/β2m (H31C)/… (human). Kind of test: fluorescence polarization, peptide exchange, 200 nM pMHC. Background: In fluorescence polarisation assays a small probe gives low polarisation when free and higher when bound to something large.

B1: … (peptide)
chain: ALIDVFHQY
B1 had an IC50 in test [1] of 49 nM.

B2: … (peptide)
peptide: KYNPIRTTF
modifications: not checked
In the case of B2, in test [2], the fold of peptide exchange kinetics (Kassoc.) against WT HLA-A*24:02 was determined as 6 fold.

For orientation: IC50 means the concentration that gives 50% inhibition. High values mean lower potency, low ones higher potency.
